Measured values from patent publication US20200249231.

Tests used:
[1] = biological target: T1, Z-[GGGRYSQRGGGG]
T1 chain: GGGRYSQRGGGG

[2] = biological target: T2, APRYRQRAA (9-mer on peptide array)
T2 chain: APRYRQRAA

[3] = biological target: T3, DYVAQ (5-mer on peptide array)
T3 chain: DYVAQ

[4] = biological target: T4, RYTQR (5-mer on peptide array)
T4 chain: RYTQR

[5] = biological target: T5, QYRQR (5-mer on peptide array)
T5 chain: QYRQR

[6] = biological target: T6, Z-[GGGDYALQGGGG]
T6 chain: GGGDYALQGGGG

[7] = biological target: T7, EYVAQ (5-mer on peptide array)
T7 chain: EYVAQ

[8] = biological target: T8, YKSFK (5-mer on peptide array)
T8 chain: YKSFK

[9] = biological target: T9, RQRQR (5-mer on peptide array)
T9 chain: RQRQR

[10] = biological target: T10, VRQRQ (5-mer on peptide array)
T10 chain: VRQRQ

[11] = biological target: T11, KYRYK (5-mer on peptide array)
T11 chain: KYRYK

[12] = biological target: T12, DWALQ (5-mer on peptide array)
T12 chain: DWALQ

[13] = biological target: T13, DWVAQ (5-mer on peptide array)
T13 chain: DWVAQ

[14] = biological target: T14, RYSQR (5-mer on peptide array)
T14 chain: RYSQR

[15] = biological target: T15, RFYSK (5-mer on peptide array)
T15 chain: RFYSK

[16] = biological target: T16, RYESK (5-mer on peptide array)
T16 chain: RYESK

[17] = biological target: T17, PYKYK (5-mer on peptide array)
T17 chain: PYKYK

[18] = biological target: T18, ARSKL (5-mer on peptide array)
T18 chain: ARSKL

[19] = biological target: T19, RYGKS (5-mer on peptide array)
T19 chain: RYGKS

[20] = biological target: T20, DYALQ (5-mer on peptide array)
T20 chain: DYALQ

[21] = biological target: T21, Z-[GGGAYRTKGGGG]
T21 chain: GGGAYRTKGGGG

[22] = biological target: T22, Thermus thermophilus SlyD FKBP domain with S. mobaraensis MTG Q-tag DYALQ instead of RYRQR
T22 chain: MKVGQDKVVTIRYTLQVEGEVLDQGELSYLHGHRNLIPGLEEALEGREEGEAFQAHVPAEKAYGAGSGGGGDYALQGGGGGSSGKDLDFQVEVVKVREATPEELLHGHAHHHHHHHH

[23] = biological target: T23, AYRQR (5-mer on peptide array)
T23 chain: AYRQR

[24] = biological target: T24, RYRQR (5-mer on peptide array)
T24 chain: RYRQR

[25] = biological target: T25, EWVAQ (5-mer on peptide array)
T25 chain: EWVAQ

[26] = biological target: T26, Z-[GGGRYSKYGGGG]
T26 chain: GGGRYSKYGGGG

[27] = biological target: T27, Z-[GGGRYESKGGGG]
T27 chain: GGGRYESKGGGG

[28] = biological target: T28, YKYAK (5-mer on peptide array)
T28 chain: YKYAK

[29] = biological target: T29, FRQRG (5-mer on peptide array)
T29 chain: FRQRG

[30] = biological target: T30, Z-[GGGQYRQRGGGG]
T30 chain: GGGQYRQRGGGG

B1: Kutzneria albida microbial transglutaminase, activated enzyme (KalbTGt3) (protein)
chain: APLAPPLAEDRSYRTWRVEDYVEAWERYHGREMTEDERENLARGCIGVTVVNLNREDLSNPPLNLSFGSLRTAEAVQAALNKIVDTHPSPAQYEAAVAKDPILKRLKNVVKALPSWIDSAKLKASIFSKRFYSWQNPDWSEERAHTTYRPDRETDQVDMSTYRYRARPGYVNFDYGWFDQDTNTWWHANHEEPRMVVYQSTLRHYSRPLQDFDEQVFTVAFAKKDGGGSGHHHHHHHH
Reaction rate in solution (pmol/s), GLDH-coupled assay [1]: 3.22 pmol/s | peptide array, second round of maturation [2]: A second round of maturation on the peptide array yielded APRYRQRAA (SEQ ID NO:24) as the top performing 9-mer substrate | 5-mer peptide array signal with KalbTG [3]: exhibited relatively lower signal on the KalbTG array | 5-mer peptide array, incorporation of biotinylated amine donor [4]: the top 22 glutamine-donor substrates identified on the 5-mer peptide array with KalbTG | 5-mer peptide array, incorporation of biotinylated amine donor [5]: the top 22 glutamine-donor substrates identified on the 5-mer peptide array with KalbTG | Array signal (log2) [5]: 8.7 log2 | GLDH-coupled activity assay [6]: KalbTG exhibited no activity with preferred S. mobaraensis MTG substrates DYALQ (SEQ ID NO: 22) and MLAQG (SEQ ID NO: 13) | Reaction rate in solution (pmol/s), GLDH-coupled assay [6]: -0.05 pmol/s | 5-mer peptide array signal with KalbTG [7]: exhibited relatively lower signal on the KalbTG array | 5-mer peptide array, incorporation of biotinylated glutamine donor Z-APRYRQRAAGGG-PEG-biotin [8]: the top 17 lysine-donor substrates identified on the 5-mer peptide array with KalbTG | 5-mer peptide array, incorporation of biotinylated amine donor [9]: the top 22 glutamine-donor substrates identified on the 5-mer peptide array with KalbTG | Array signal (log2) [9]: 8.84 log2 | 5-mer peptide array, incorporation of biotinylated amine donor [10]: the top 22 glutamine-donor substrates identified on the 5-mer peptide array with KalbTG | 5-mer peptide array, incorporation of biotinylated glutamine donor Z-APRYRQRAAGGG-PEG-biotin [11]: the top 17 lysine-donor substrates identified on the 5-mer peptide array with KalbTG | 5-mer peptide array signal with KalbTG [12]: exhibited relatively lower signal on the KalbTG array | 5-mer peptide array signal with KalbTG [13]: exhibited relatively lower signal on the KalbTG array | 5-mer peptide array, incorporation of biotinylated amine donor [14]: the top 22 glutamine-donor substrates identified on the 5-mer peptide array with KalbTG | Array signal (log2) [14]: 8.93 log2 | 5-mer peptide array, incorporation of biotinylated glutamine donor Z-APRYRQRAAGGG-PEG-biotin [15]: the top 17 lysine-donor substrates identified on the 5-mer peptide array with KalbTG | 5-mer peptide array, incorporation of biotinylated glutamine donor Z-APRYRQRAAGGG-PEG-biotin [16]: the top 17 lysine-donor substrates identified on the 5-mer peptide array with KalbTG | Array signal (log2) [16]: 12.7 log2 | 5-mer peptide array, incorporation of biotinylated glutamine donor Z-APRYRQRAAGGG-PEG-biotin [17]: the top 17 lysine-donor substrates identified on the 5-mer peptide array with KalbTG | Array signal (log2) [18]: 12 log2 | Array signal (log2) [19]: 12.4 log2 | 5-mer peptide array signal with KalbTG [20]: exhibited relatively lower signal on the KalbTG array | Array signal (log2) [20]: 7.22 log2 | Reaction Rate in Solution (pmol s^-1), GLDH-coupled assay with 200 µM glutamine donor [21]: 3.65 pmol/s | labeling with KalbTG K-tag-Cy3 (SDS-PAGE, in-gel fluorescence) [22]: showed no incorporation of label when incubated with KalbTG | 5-mer peptide array, incorporation of biotinylated amine donor [23]: the top 22 glutamine-donor substrates identified on the 5-mer peptide array with KalbTG | 5-mer peptide array, incorporation of biotinylated amine donor [24]: the top 22 glutamine-donor substrates identified on the 5-mer peptide array with KalbTG | Array signal (log2) [24]: 8.96 log2 | 5-mer peptide array signal with KalbTG [25]: exhibited relatively lower signal on the KalbTG array | Reaction Rate in Solution (pmol s^-1), GLDH-coupled assay with 200 µM glutamine donor [26]: 3.89 pmol/s | Reaction Rate in Solution (pmol s^-1), GLDH-coupled assay with 200 µM glutamine donor [27]: 4.47 pmol/s | 5-mer peptide array, incorporation of biotinylated glutamine donor Z-APRYRQRAAGGG-PEG-biotin [28]: the top 17 lysine-donor substrates identified on the 5-mer peptide array with KalbTG | 5-mer peptide array, incorporation of biotinylated amine donor [29]: the top 22 glutamine-donor substrates identified on the 5-mer peptide array with KalbTG | Array signal (log2) [29]: 8.82 log2 | Reaction rate in solution (pmol/s), GLDH-coupled assay [30]: 1.92 pmol/s
